Assay: label from the status in PepcDB records
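Further: failed if final PepcDB status was selected cloned or expressed and not failed if soluble or beyond.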

Sequence	protein production
LGGVAPEQVAYAVEQAGKRLQERDNAGVKVRPARLTDLDALEGMVAYWAGLGENLPRNRNELVRDIGSFAVAEHHGEVTGCASLYVYDSGLAEIRSLGVEAGWQSQGQGKAIVQHLVEKAREMAIKKVFVLTRVPEFFMKQDFIPTSRSLLPEKVLKDCDQCPRQH	failed
LGIAINEMIRMLRAARDEDDRRNWLKDGYGQVSAALTGDLTTEQLADAAIGLIGRYLDAGRGVFYLYRDAEQRLDLIGSYMYTERNNLGASFALGEGAVGQVARERKPIILEVSGDDAAPIVTGTMLALPRYTYTYPLLHEKELVGVIELSSFDHFDERKLEFLANVGGMLASFL	failed
LGNAMNIPAPIRIEAFDNSNIMGTNPVSAMVVFIDGRPAKNEYRKYKIKTVQGPDDYASMREVIYRRYSRVLKEGLPFPDLILIDGGKGQVDVAKDVLANQLGVDIPVAGLAKNDKHKTSELLFGPNLEVVPLERNSQEFFLLQRIQDEVHRFAI	not failed
LKCSTVVCVICLEKPKYRCPACRVPYCSVVCFRKHKEQCNPET	not failed
LKLEVVEDKQYGRLANRIENVVSQERTRKKFESLVSDSPDGIVHLTTNGTILSVNPSMAGRLGADPDTLVGQQLSAVMDSEAANQRLEAGKSAVENGTATRSEDAVGGRHYHNQYIPVDSHR	failed
LKYILETKLEEERNHLEELLEKVEEDYEGINYDEVLEALKLFKDNYELPKSKIKRKIRIFLIKENILFLNPQKGTLKPQSYLVWNAIKRML	not failed
LLLTRPDEECAALAASLGEAGVHSSSLPLLAIDPLEETPEQRTLMLDLDRYCAVVVVSKPAARLGLERLDRYWPQPPQQTWCSVGAATAAILEAYGLDVTYPEQGDDSEALLALPAFQDSLRVHDPKVLIMRGEGGREFLAERLRGQGVQVDYLPLYRRRAPDYPAGELLARVRAERLNGLVVSSGQGLQNLYQLAAADWPEIGRLPLFVPSPRVAEMARELGAQRVIDCRGASAPALLAALTSAA	failed
LPDQRTVLYVHGGAWFQDPLENHFEYLDLLVDALDARVIMPVYPKIPHRDYRTTFELLTKIYKRLLTKIDEPENLVIIGDSAGGQIALAFAQMLKKEQLSQPGHIVLISPVLDATFKNPEARKYEKEDPMLGIDGSKYLVELWAGDAPLDDYKMSPMNGDLEGLGHITLTVGTKETLYPDAVKFSHMLNDKGIKHQFIPGYNLFHIYPLFPIPERQRFLEQLKKIIVTKEL	not failed
LPIIVKWGGQEYSVTTLSKDDTVLDLKQFLKTLTGVLPERQKLLGLKVKGKPAENDVKLGALKLKPNTKIMMMGTRE	not failed
LPLTDALRKALAEAPKHTANIARKRHILFIGKLMRDQDQEAILVLLDQLDASTRQYNERFHNLERWRDRLIAGDDADLEKFVIEYPDADRQQLRSLIRQAQHEVARNKP	failed
LPSFRHKVFALVLVGVFVGLGAYLVYMSKAYSYLSDDPRVCINCHVMGPYYATWQHSSHAMRATCNDCHVPHNSIFSKYYFKASDGLRHSYVFTMRNEPQRMQAISASQAVIYDNCVRCHAQLNQEFVRTGMLTRADIRTAEEKACWDCHRDVPHGGKNS	failed
LQASCSDDQEHRLGSLDFYTGVFALEKSRIAEISNRATLELQKMATSGEPMWLRSVETGREILNYDEYLKEFPQAQASSFPGRKTIEASRDAGIVFMDAHKLAQSFMDVGQWKETFACLISKAATVDVIRQGEGPSRIDGAIQLMFGEMQLLTPVVPTREVYFVRSCRQLSPEKWAIVDVSVSVEDSNTEKEASLLKCRKLPSGCIIEDTSNGHSKVTWVEHLDVSASTVQPLFRSLVNTGLAFGARHWVATLQLHCERLVFFMATNVPTKDSLGVTTLAGRKSVLKMAQRMTQSFYRAIAASSYHQWTKITTKTGQDMRVSSRKNV	not failed
LRELDWFARRGLKEPNLAELLDLVALGSVADVVPLDANNRILVHQGLARIRAGRARPGLRALLEVAGRPPVRITSTDLGFILGPRLNAAGRLDDMSLGIECLLCDDEALARDMAVQLDQLNQDRKAIEQGMQREALAQLKELSLEQLPFGLCLFDADWHQGVIGILASRLKERYHRPTIAFADAGDGSLKGSARSIPGFHIRDALDAVAARHPGLISKFGGHAMAAGLSLPQENFGAFSAAFDAEVRRQLAEEDLAGRLLSDGQLSIQEFHLELARALRQAGPWGQHFPEPMFHGVFQLVQQRIVGERHLKLVLKSECGSLQLDGIAFNIDREQWPNPTVRWAELAYKLDVNEFRGQESVQLMIVHMAPR	failed
LRKSEERWQLAIVGTDEAIWDWDILTNHTYRSDRWFEMLGYERHEMSTFDDEWSIRIHPDDYNRVMAAQAAYLRREVPVYYTEYRLRCKDGNYKWFRSRAKGVWDEQGNPIRLVGSLGDITGRKSIELD	not failed
LRQQRLIWVVLALSCVIVISLLMLWRYTRFRSEAEAALIAETGFRRAMENSMSTGMRVLDMEGRIAYVNPAFCRMIGWNEADLIGRSPPFPYWVPGRHDQHQHTLEVLTSGKTPSSGLEVEAQRRDGSRFTARMYVSPLLDPNGDQIGWMTSMTDIT	failed
LRVFSSDGKLIAEFGEMRRTPIRFAEIPPNFINALLSAEDDNFANHYGVDPSSLMRAATQLVKSGHIQSGGSTITMQVAKNFFLTSERSFSRKTTEILLALQIERQLTKDEILELYVNKIYLGNRAYGIEAAAQVYYGKSIRDVSLAQMAMIAGLPKAPSRFNPLANA	failed
LSQNTLAENIYNIIISDISRKWALKDISDSLYMSCSTLKRKLKQEHTSFSEVYLNARMNKATKLLRNSEYNITRVAYMCGYDSASYFTCVFKKHFKTTPSEFLAFLSSSRHQ	failed
LTRSNISYFSIGSGTPIIFLHGLSLDKQSTCLFFEPLSNVGQYQRIYLDLPGMGNSDPISPSTSDNVLETLIEAIEEIIGARRFILYGHSYGGYLAQAIAFHLKDQTLGVFLTCPVITADHSKRLTGKHINILEEDINPVENKEYFADFLSMNVIINNQAWHDYQNLIIPGLQKEDKTFIDQLQNNYSFTFEEKLKNINYQFPFKIMVGRNDQVVGYQEQLKLINHNENGEIVLLNRTGHNLMIDQREAVGFHFDLFLDELNSN	failed
LVEDFERELGRMLSPFELEDLQKTVSDDKTDPDLVRSALREAVFNGKTNWNYIQAILRNWRHEGISTLRQVEE	not failed
LVTISSTSAASLPTMPPSGYDQVRNGVPRGQVVNISYFSTATNSTRPARVYLPPGYSKDKKYSVLYLLHGIGGSENDWFEGGGRANVIADNLIAEGKIKPLIIVTPNTNAAGPGIADGYENFTKDLLNSLIPYIESNYSVYTDREHRAIAGLSMGGGQSFNIGLTNLDKFAYIGPISAAPNTYPNERLFPDGGKAAREKLKLLFIACGTNDSLIGFGQRVHEYCVANNINHVYWLIQGGGHDFNVWKPGLWNFLQMADEAGLTRDGNT	not failed
LYDQGGPVEILPFLYLGSAYHASRKDMLDALGITALINVSANCPNHFEGHYQYKSIPVEDNHKADISSWFNEAIDFIDSIKNAGGRVFVHCQAGISRSATICLAYLMRTNRVKLDEAFEFVKQRRSIISPNFSFMGQLLQFESQVLAPHCSAEAGSPAMAVLDRGTSTTTVFNFPVSIPVHSTNSALSYLQSPITTSPSC	failed
LYQGFEKEFGRPLSPIELEMIGQWLNTDHYSPELIRLALREAVLNQAYSLKYIDRILLAWERKNITTKEQVAA	failed
MAAALPRTLGELQLYRILQKANLLSYFDAFIQQGGDDVQQLCEAGEEEFLEIMALVGMASKPLHVRRLQKALRDWVTNPGLFNQPLTSLPVSSIPIYKLPEGSPTWLGISCSSYERSSNAREPHLKIPKCAATTCVQSLGQGKSDVVGSLALQSVGESRLWQGHHATESEHSLSPADLGSPASPKESSEALDAAAALSVAECVERMAPTLPKSDLNEVKELLKTNKKLAKMIGHIFEMNDDDPHKEEEIRKYSAIYGRFDSKRKDGKHLTLHELTVNEAAAQLCVKDNALLTRRDELFALARQISREVTYKYTYRTTKSKCGERDELSPKRIKVEDGFPDFQDSVQTLFQQARAKSEELAALSSQQPEKVMAKQMEFLCNQAGYERLQHAERRLSAGLYRQSSEEHSPNGLTSDNSDGQGERPLNLRMPNLQNRQPHHFVVDGELSRLYPSEAKSHSSESLGILKDYPHSAFTLEKKVIKTEPEDSR	not failed
MAADKLADEVACMANTPGGGALIVGIEDKTGRIIGTELDIDWLRQGIFTRIDVAPDVVAKRVLGQRVLAIYVAAAAEPIEDTSDRLRWRVGDSCRPVDLEHHHHHH	failed
MAADVVFPGLCVFLSAGLLLALVHGRRVGRRADRQCRHLAAITDTMSEGFYVVDGDDRIVMANAAAGRILGYTQDDLIGACAHALFHARSADDPDPVPLEECRLNRAVRERRAAFLDVGHFRHRSGKIIAVEVSCNPVADTLAEEGRRGGLLGWLLDGDDAEGAPGALLSMVTFVDITARRESEAAVIKLSHAVEQSSASIVITDADGRIEYANPAFTKISGYTAQEAIGRRPSILKSGLVPAETYRALWQTITNGGEWRGEFHNRRKDGTLYWEMASISPIRDARGKITNFVAVKDDVTERKAIESELYHRANYDALTGLPNRQLLLDRVSTALDLARRHDRRVAVMFMDIDRFKQINDSMGHAAGDVLLKQAASRLAAVLRPQDTLGRLGGDEFLVVAPGLRWESEATALASRLLEVARRPFTIDGREVYVSVSIGVSLGPVDGTTAQALMRNADAAMYLAKGGGRDAAHFFTPDIEAAARRRMLIENGLRTAVSDGSLYLALQPIIACADHTMIKAEALLRWTHPQLGGVPPSEFIPIAEESGLIRAIGAWVIEEAARLLVSLDPPRDGAFRLGINIASSQFTGGLHHHVAGMLARYDLDPRMLEIEITERMLLDPSPAILEQVDALRAMGVSIAIDDFGTGYSALSYLSVFHVDTLKIDRAFVSVMTDEARSQALIGAIVALGHELGCAVVAEGVETADQARLLGELAVDALQGYFLGRPTTAEAISDRLNPGTGRPYDKAALGTEFAEGGDLGLSVGAL	failed
MAAFQIANKTVGKDAPVFIIAEAGINHDGKLDQAFALIDAAAEAGADAVKFQMFQADRMYQKDPGLYKTAAGKDVSIFSLVQSMEMPAEWILPLLDYCREKQVIFLSTVCDEGSADLLQSTSPSAFKIASYEINHLPLLKYVARLNRPMIFSTAGAEISDVHEAWRTIRAEGNNQIAIMHCVAKYPAPPEYSNLSVIPMLAAAFPEAVIGFSDHSEHPTEAPCAAVRLGAKLIEKHFTIDKNLPGADHSFALNPDELKEMVDGIRKTEAELKQGITKPVSEKLLGSSYKTTTAIEGEIRNFAYRGIFTTAPIQKGEAFSEDNIAVLRPGQKPQGLHPRFFELLTSGVRAVRDIPADTGIVWDDILLKDSPFHE	not failed
MAAHDDDMNRGIRPGRGSDDPAGQIAYLEQEIAVLRRKLADSPRHTRILEERIVELQTNLAGVSAQNERLANTLREARDQIVALKEEVDRLAQPPAGFGVFLTANEDGTADIFTGGRKLRVNVSPSVELEELRRGQELMLNEALNVVEAMEYESVGDIVTLKEILEDGERALVVGHTDEERVVRLAEPLLDVTIRPGDALLLEPRSGYVYEVVPKSEVEELVLEEVPDIGYEQIGGLGNQIEMIRDAVELPYLYPDLFKEHELRPPKGVLLYGPPGCGKTLIAKAVANSLAKKVAEVTGQATGKSFFLNIKGPELLNKYVGETERQIRLVFQRAREKASEGTPVIVFFDEMESLFRTRGSGVSSDVENTIVPQLLAEIDGVEGLQNVVVIGASNREDMIDPAILRPGRLDVKIKIERPDAEAAKDIFGKYLTERLPLHTEDVGEHGGDRSATVHGMIQTAVEQMYAESEENRFLEVTYANGDKEVLYFKDFNSGAMIENIVGRAKKMAIKDFLEHSQKGLRVSHLLQACVDEFKENEDLPNTTNPDDWARISGKKGERIVYIRTLITGKQGADTGRSIDTVANTGQYL	failed
MAAKFHLKKAKDGQFHFNLHAANGEIILTSELYKAKDSALGGIESVRKNSQRDGAFEVKPANNGKFHFVLKATNGQVVGQSQLYASQANAEAGVQSVKRATPEAGLSDESLEHHHHHH	not failed
